Test results reported in patent publication CN114790240A (UNIV ZHENGZHOU; UNIV HENAN AGRICULTURAL, dated 2022).

Legend:
[1] = biological target: 重组RBD蛋白 (SARS-CoV-2 RBD蛋白) (SARS-CoV-2, UniProt P0DTC2 331-524)
SARS-CoV-2野生株假病毒 (刺突蛋白) = SARS-CoV-2野生株假病毒 (刺突蛋白) (SARS-CoV-2, UniProt P0DTC2 14-1273); assay: cell-based or functional assay

Binder	EC50 [1]	假病毒中和活性IC50 (SARS-CoV-2野生株假病毒 (刺突蛋白))
单克隆抗体8H9 (antibody, V domains shown) VH: QIQLVQSGPELKKPGETVKISCKASGYTFTTYGMSWVKQTPGKGLKWMGWINTYSGVPTYADDFKGRFAFSLETSASTASLQINNLKNEDTATYFCARYDPTAPDYAMDYWGQGTSVTVSS VL: NIVMTQSPKSMSMSVGERVTLSCKASENVGTYVSWYQQKPEQSPKLLIYGASNRYTGVPDRFTGSGSATDFTLTISSVQAEDLADYHCGQSYIYPLTFGAGTNLELK	0.0251 µg/mL	33 ng/mL
单克隆抗体9D4 (antibody, V domains shown) VH: QVHLQQSGPELVKPGASVKISCKSSGYALTDYYINWVKQRPGQGLEWIGWIFPGNDYTYFNEKFKDKATLTLDKSSRTAYMLLSSLTTEDSAVYFCARYGDGNYVYFDYWGQGTSLTVSS VL: ETVLIQSPALMAASPGEKVTITCSVSSSISSSNLHWYQQKSGNSPKPWIYGTSNLASGVPVRFSGSGSGTSYSLTISSMEAEDAATYYCQQWSSYPLTFGAGTKLELK	0.0242 µg/mL	112 ng/mL
